Test results as given in patent EP1073891B1, “METHOD OF PREDICTING RECEPTOR MODULATING ACTIVITY” (Duke University, priority 1998, dated 1999).

Experiments:
Format in all cases: cell-based
[1] = target: T1, progesterone receptor (PRB-VP16) (Homo sapiens, UniProt P06401); experiment: Mammalian two-hybrid, specificity of peptide-nuclear receptor interaction (Example 4.2); conditions: mammalian two-hybrid (Fig. 8)
T1 construct: expressed in transfected cells
T1 sequence (P06401 1-933): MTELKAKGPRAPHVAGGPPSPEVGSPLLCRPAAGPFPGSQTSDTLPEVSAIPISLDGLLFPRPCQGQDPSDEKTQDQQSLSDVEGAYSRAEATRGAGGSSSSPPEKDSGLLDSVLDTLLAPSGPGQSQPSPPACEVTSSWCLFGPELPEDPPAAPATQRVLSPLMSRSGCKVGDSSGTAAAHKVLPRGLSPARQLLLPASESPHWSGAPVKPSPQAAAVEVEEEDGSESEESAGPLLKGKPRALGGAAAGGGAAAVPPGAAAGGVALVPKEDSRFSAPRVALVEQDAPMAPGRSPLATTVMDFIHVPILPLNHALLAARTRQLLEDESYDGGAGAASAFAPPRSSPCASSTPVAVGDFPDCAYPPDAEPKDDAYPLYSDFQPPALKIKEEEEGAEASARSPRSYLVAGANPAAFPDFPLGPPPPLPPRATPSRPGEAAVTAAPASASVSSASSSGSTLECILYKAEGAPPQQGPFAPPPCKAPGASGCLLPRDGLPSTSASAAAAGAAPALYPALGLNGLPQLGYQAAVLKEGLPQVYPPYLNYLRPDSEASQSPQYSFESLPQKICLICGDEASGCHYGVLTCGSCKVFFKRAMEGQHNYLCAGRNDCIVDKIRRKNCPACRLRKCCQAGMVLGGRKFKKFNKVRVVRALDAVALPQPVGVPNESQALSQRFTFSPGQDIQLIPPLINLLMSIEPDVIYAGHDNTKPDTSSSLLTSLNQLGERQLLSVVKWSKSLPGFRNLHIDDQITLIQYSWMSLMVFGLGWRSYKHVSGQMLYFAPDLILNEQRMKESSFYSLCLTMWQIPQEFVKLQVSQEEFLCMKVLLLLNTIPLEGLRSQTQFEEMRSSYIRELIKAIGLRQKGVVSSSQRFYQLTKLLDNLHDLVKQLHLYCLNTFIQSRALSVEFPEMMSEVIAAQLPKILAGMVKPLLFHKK
Source text: (§1) Peptide sequences representing each class was fused to the DNA binding domain (DBD) of the yeast transcription factor Ga14. HepG2 cells were then transiently transfected with expression vectors for ERα-VP16 and the Gal4-peptide fusion proteins. In addition, a luciferase reporter construct under the control of 5 copies of a Ga14 upstream enhancer element was also transfected along with a pCMV-β galactosidase vector to normalize for transfection efficiency. Transfection of the Ga14 DBD alone is included as control. Cells were then induced with various ligands as indicated in the figure and assayed for luciferase activity and β galactosidase activity. Normalized response was obtained by dividing the luciferase activity by the β galactosidase activity.
(§2) The specificity of peptide-nuclear receptor interaction was analyzed (Fig. 8) using the mammalian two-hybrid system. Experimental design is the same as in figure 2 except that either progesterone receptor (PRB-VP16), estrogen receptor beta (ERβ-VP16), glucocorticoid receptor (GR-VP16) or thyroid receptor beta (TRβ-VP16) was tested.

[2] = target: T2, glucocorticoid receptor (GR-VP16) (Homo sapiens, UniProt P04150); experiment: as above; conditions: mammalian two-hybrid (Fig. 8)
T2 construct: expressed in transfected cells
T2 sequence (P04150 1-777): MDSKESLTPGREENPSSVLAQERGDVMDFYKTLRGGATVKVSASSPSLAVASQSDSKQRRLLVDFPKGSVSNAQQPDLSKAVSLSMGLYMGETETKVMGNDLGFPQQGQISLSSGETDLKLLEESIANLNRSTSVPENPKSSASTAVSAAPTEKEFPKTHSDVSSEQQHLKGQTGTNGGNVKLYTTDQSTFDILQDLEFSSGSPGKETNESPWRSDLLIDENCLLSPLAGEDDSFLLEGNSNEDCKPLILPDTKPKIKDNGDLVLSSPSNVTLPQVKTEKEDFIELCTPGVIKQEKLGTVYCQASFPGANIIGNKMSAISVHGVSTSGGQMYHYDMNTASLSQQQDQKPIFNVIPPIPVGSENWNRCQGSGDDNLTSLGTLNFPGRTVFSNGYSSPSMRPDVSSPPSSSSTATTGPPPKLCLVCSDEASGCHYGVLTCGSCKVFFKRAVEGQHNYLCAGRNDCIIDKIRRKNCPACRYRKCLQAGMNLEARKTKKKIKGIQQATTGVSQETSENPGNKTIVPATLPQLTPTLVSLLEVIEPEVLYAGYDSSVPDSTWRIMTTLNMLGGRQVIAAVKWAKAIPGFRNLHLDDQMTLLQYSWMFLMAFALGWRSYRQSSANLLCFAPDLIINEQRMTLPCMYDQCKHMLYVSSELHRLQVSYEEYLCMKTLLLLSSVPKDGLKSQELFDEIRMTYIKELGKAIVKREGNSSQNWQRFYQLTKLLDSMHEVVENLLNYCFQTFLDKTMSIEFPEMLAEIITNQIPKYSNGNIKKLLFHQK
Source text: as §1, §2

ERα-VP16 = target: T3, ERα-VP16 (Homo sapiens, UniProt P03372); experiment: Mammalian two-hybrid in HepG2 cells, Gal4-peptide fusions, luciferase reporter (Example 4.1); conditions: Gal4-peptide fusion, various ligands (Fig. 7)
T3 construct: expressed in transfected cells; host or cells: HepG2
T3 sequence (P03372 1-595): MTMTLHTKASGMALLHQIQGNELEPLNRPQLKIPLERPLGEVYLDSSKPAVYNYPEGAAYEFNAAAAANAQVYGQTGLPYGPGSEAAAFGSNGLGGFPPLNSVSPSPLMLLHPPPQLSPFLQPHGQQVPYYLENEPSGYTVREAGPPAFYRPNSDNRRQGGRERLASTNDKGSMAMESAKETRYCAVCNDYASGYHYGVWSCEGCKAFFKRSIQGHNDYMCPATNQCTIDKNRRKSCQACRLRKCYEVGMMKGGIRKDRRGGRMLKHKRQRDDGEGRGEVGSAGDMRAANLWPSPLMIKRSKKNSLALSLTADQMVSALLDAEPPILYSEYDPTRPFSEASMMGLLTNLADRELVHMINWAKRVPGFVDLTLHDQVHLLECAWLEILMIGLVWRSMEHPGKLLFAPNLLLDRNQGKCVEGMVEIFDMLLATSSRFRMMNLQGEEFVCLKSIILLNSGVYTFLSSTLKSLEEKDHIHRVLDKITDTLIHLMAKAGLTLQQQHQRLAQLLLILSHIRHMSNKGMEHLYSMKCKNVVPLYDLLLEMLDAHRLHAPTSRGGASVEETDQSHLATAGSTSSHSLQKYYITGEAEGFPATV
Source text: as §1

| Sequence | interaction with PRB [1] | interaction with GR [2] | interaction with ERα (normalized luciferase response) (ERα-VP16) |
| --- | --- | --- | --- |
| SSLTSRDFGSWYASR [α II] | None of the receptors tested interact significantly | None of the receptors tested interact significantly | interacts with the receptor under all conditions with the apo-receptor and ICI 182,780 bound receptor showing the least activity |
| SSNHQSSRLIELLSR [α/β I] | interact with the αβ I peptide in the presence of the appropriate agonist | interact with the αβ I peptide in the presence of the appropriate agonist | interacts with ER in the presence of estradiol and somewhat with the apo-receptor |
| SSPGSREWFKDMLSR [α/β V] | able to associate with PRB in the presence of the PR antagonists RU 486 and ZK 98299 |  | interact almost exclusively with the tamoxifen bound receptor |
| SSWDMHQFFWEGVSR [α/β III] | None of the receptors tested interact significantly | None of the receptors tested interact significantly | interact almost exclusively with the tamoxifen bound receptor |
